# Experimental data: the supplement of paper PMC9112550, “Optimization of the antimicrobial peptide Bac7 by deep mutational scanning” (BMC Biology, 2022)
# System: Escherichia coli TOP10
# Test: shrunken log2 fold change of peptide-encoding DNA abundance (4.5 h post-induction vs induction); higher = less antimicrobial activity (less host growth inhibition)
# Details: time post-induction: 4.5 h; library: site-saturation at positions 5, 18, 19, 20
# 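Also: peptides expressed intracellularly from a pBAD plasmid library in pooled LB shake-flask culture, induced with 0.3% L-arabinose, DNA abundance read by NGS, three biological replicates, DESeq2 with apeglm shrinkage.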
sequence,measurement,value
RRIRHRPPRLPRPRPRPNRSPRP,shrunken log2 fold change,-0.413
RRIRDRPPRLPRPRPRPYKYPRP,shrunken log2 fold change,-0.661
RRIRMRPPRLPRPRPRPCPLPRP,shrunken log2 fold change,-0.0594
RRIRYRPPRLPRPRPRPIAFPRP,shrunken log2 fold change,-0.564
RRIRVRPPRLPRPRPRPLDMPRP,shrunken log2 fold change,-0.024
RRIRARPPRLPRPRPRPDLPPRP,shrunken log2 fold change,0.311
RRIRSRPPRLPRPRPRPIDFPRP,shrunken log2 fold change,-0.0652
RRIRYRPPRLPRPRPRPNIIPRP,shrunken log2 fold change,-1.01
RRIRYRPPRLPRPRPRPTTNPRP,shrunken log2 fold change,-0.837
RRIRMRPPRLPRPRPRPVPGPRP,shrunken log2 fold change,0.882
RRIRGRPPRLPRPRPRPPTGPRP,shrunken log2 fold change,0.741
RRIRGRPPRLPRPRPRPGSGPRP,shrunken log2 fold change,0.808
RRIRKRPPRLPRPRPRPLNVPRP,shrunken log2 fold change,0.252
RRIRCRPPRLPRPRPRPKCCPRP,shrunken log2 fold change,0.0554
RRIRCRPPRLPRPRPRPAWWPRP,shrunken log2 fold change,0.902
RRIRLRPPRLPRPRPRPPQIPRP,shrunken log2 fold change,0.0736
RRIRDRPPRLPRPRPRPRVGPRP,shrunken log2 fold change,0.972
RRIRARPPRLPRPRPRPTEFPRP,shrunken log2 fold change,0.368
RRIRNRPPRLPRPRPRPTQLPRP,shrunken log2 fold change,-0.0336
RRIRGRPPRLPRPRPRPFMGPRP,shrunken log2 fold change,-0.123
RRIRKRPPRLPRPRPRPNCNPRP,shrunken log2 fold change,0.00173
RRIRHRPPRLPRPRPRPRQPPRP,shrunken log2 fold change,0.474
RRIRGRPPRLPRPRPRPQHLPRP,shrunken log2 fold change,-0.054
RRIRFRPPRLPRPRPRPQRLPRP,shrunken log2 fold change,0.106
RRIRVRPPRLPRPRPRPRFVPRP,shrunken log2 fold change,0.12
RRIRGRPPRLPRPRPRPNITPRP,shrunken log2 fold change,0.315
RRIRHRPPRLPRPRPRPGLAPRP,shrunken log2 fold change,0.366
RRIRNRPPRLPRPRPRPDAIPRP,shrunken log2 fold change,0.0267
RRIRVRPPRLPRPRPRPHRYPRP,shrunken log2 fold change,-0.348
RRIRNRPPRLPRPRPRPSYHPRP,shrunken log2 fold change,-0.273
RRIRVRPPRLPRPRPRPLPSPRP,shrunken log2 fold change,0.244
RRIRRRPPRLPRPRPRPGNFPRP,shrunken log2 fold change,0.155
RRIRQRPPRLPRPRPRPTCSPRP,shrunken log2 fold change,-0.353
RRIRERPPRLPRPRPRPHDQPRP,shrunken log2 fold change,0.0804
RRIRTRPPRLPRPRPRPFFRPRP,shrunken log2 fold change,0.234
RRIRERPPRLPRPRPRPQHGPRP,shrunken log2 fold change,-0.102
RRIRHRPPRLPRPRPRPADLPRP,shrunken log2 fold change,-0.0314
RRIRLRPPRLPRPRPRPKHAPRP,shrunken log2 fold change,0.0823
RRIRFRPPRLPRPRPRPKVNPRP,shrunken log2 fold change,-0.266
RRIRCRPPRLPRPRPRPEKSPRP,shrunken log2 fold change,0.0445
RRIRERPPRLPRPRPRPCLSPRP,shrunken log2 fold change,0.0657
RRIRDRPPRLPRPRPRPYEDPRP,shrunken log2 fold change,0.0115
RRIRMRPPRLPRPRPRPCGMPRP,shrunken log2 fold change,0.134
RRIRFRPPRLPRPRPRPYKFPRP,shrunken log2 fold change,-0.228
RRIRPRPPRLPRPRPRPIHVPRP,shrunken log2 fold change,-0.351
RRIRQRPPRLPRPRPRPCGDPRP,shrunken log2 fold change,-0.0871
RRIRMRPPRLPRPRPRPGQTPRP,shrunken log2 fold change,-0.00931
RRIRDRPPRLPRPRPRPWPIPRP,shrunken log2 fold change,0.00865
RRIRVRPPRLPRPRPRPQLPPRP,shrunken log2 fold change,-0.0715
RRIRHRPPRLPRPRPRPPSNPRP,shrunken log2 fold change,0.0232
RRIRSRPPRLPRPRPRPAGKPRP,shrunken log2 fold change,-0.284
RRIRWRPPRLPRPRPRPRAEPRP,shrunken log2 fold change,0.621
RRIRFRPPRLPRPRPRPRNFPRP,shrunken log2 fold change,-0.0477
RRIRMRPPRLPRPRPRPLEWPRP,shrunken log2 fold change,0.31
RRIRLRPPRLPRPRPRPTRWPRP,shrunken log2 fold change,0.456
RRIRLRPPRLPRPRPRPAPKPRP,shrunken log2 fold change,0.659
RRIRNRPPRLPRPRPRPMQRPRP,shrunken log2 fold change,0.00752
RRIRIRPPRLPRPRPRPNHAPRP,shrunken log2 fold change,-0.0782
RRIRKRPPRLPRPRPRPQFYPRP,shrunken log2 fold change,-0.555
RRIRFRPPRLPRPRPRPDFWPRP,shrunken log2 fold change,0.0889
RRIRIRPPRLPRPRPRPKPMPRP,shrunken log2 fold change,-0.0736
RRIRLRPPRLPRPRPRPTFTPRP,shrunken log2 fold change,-0.346
RRIRERPPRLPRPRPRPDYNPRP,shrunken log2 fold change,-0.53
RRIRIRPPRLPRPRPRPSHSPRP,shrunken log2 fold change,-1.02
RRIRFRPPRLPRPRPRPQALPRP,shrunken log2 fold change,-0.137
RRIRDRPPRLPRPRPRPSGDPRP,shrunken log2 fold change,0.163
RRIRNRPPRLPRPRPRPFPSPRP,shrunken log2 fold change,-0.0692
RRIRTRPPRLPRPRPRPWLYPRP,shrunken log2 fold change,-0.161
RRIRPRPPRLPRPRPRPCQRPRP,shrunken log2 fold change,-0.144
RRIRARPPRLPRPRPRPRLTPRP,shrunken log2 fold change,1.58
RRIRTRPPRLPRPRPRPEAEPRP,shrunken log2 fold change,0.0438
RRIRRRPPRLPRPRPRPVWIPRP,shrunken log2 fold change,0.148
RRIRCRPPRLPRPRPRPKLMPRP,shrunken log2 fold change,-0.0168
RRIRIRPPRLPRPRPRPKCLPRP,shrunken log2 fold change,-0.0748
RRIRKRPPRLPRPRPRPYCYPRP,shrunken log2 fold change,-0.182
RRIRCRPPRLPRPRPRPWLKPRP,shrunken log2 fold change,-0.133
RRIRIRPPRLPRPRPRPIRYPRP,shrunken log2 fold change,-0.125
RRIRWRPPRLPRPRPRPYCSPRP,shrunken log2 fold change,-0.0518
RRIRSRPPRLPRPRPRPQQAPRP,shrunken log2 fold change,0.0031
RRIRWRPPRLPRPRPRPTYVPRP,shrunken log2 fold change,0.0417
RRIRVRPPRLPRPRPRPVQLPRP,shrunken log2 fold change,0.258
RRIRHRPPRLPRPRPRPFERPRP,shrunken log2 fold change,-0.128
RRIRFRPPRLPRPRPRPQNVPRP,shrunken log2 fold change,-0.16
RRIRCRPPRLPRPRPRPNRPPRP,shrunken log2 fold change,-0.0846
RRIRTRPPRLPRPRPRPGSNPRP,shrunken log2 fold change,-0.415
RRIRTRPPRLPRPRPRPGCFPRP,shrunken log2 fold change,0.0805
RRIRLRPPRLPRPRPRPVTLPRP,shrunken log2 fold change,-0.751
RRIRSRPPRLPRPRPRPVFKPRP,shrunken log2 fold change,-0.29
RRIRPRPPRLPRPRPRPEKCPRP,shrunken log2 fold change,0.156
RRIRTRPPRLPRPRPRPMQTPRP,shrunken log2 fold change,0.0276
RRIRNRPPRLPRPRPRPPALPRP,shrunken log2 fold change,0.132
RRIRGRPPRLPRPRPRPTKNPRP,shrunken log2 fold change,0.69
RRIRPRPPRLPRPRPRPNTCPRP,shrunken log2 fold change,-0.00653
RRIRKRPPRLPRPRPRPMLLPRP,shrunken log2 fold change,-0.0797
RRIRSRPPRLPRPRPRPNMTPRP,shrunken log2 fold change,-0.247
RRIRKRPPRLPRPRPRPAADPRP,shrunken log2 fold change,0.941
RRIRARPPRLPRPRPRPWVIPRP,shrunken log2 fold change,-0.296
RRIRLRPPRLPRPRPRPTYMPRP,shrunken log2 fold change,-0.469
RRIRGRPPRLPRPRPRPIVKPRP,shrunken log2 fold change,0.328
RRIRKRPPRLPRPRPRPSAAPRP,shrunken log2 fold change,0.624
RRIRKRPPRLPRPRPRPHNNPRP,shrunken log2 fold change,-0.244
RRIRNRPPRLPRPRPRPNAWPRP,shrunken log2 fold change,0.000665
RRIRTRPPRLPRPRPRPYGVPRP,shrunken log2 fold change,0.0122
RRIRWRPPRLPRPRPRPWQFPRP,shrunken log2 fold change,0.00487
RRIRIRPPRLPRPRPRPAGHPRP,shrunken log2 fold change,-0.159
RRIRMRPPRLPRPRPRPFPIPRP,shrunken log2 fold change,0.0281
RRIRRRPPRLPRPRPRPWASPRP,shrunken log2 fold change,0.289
RRIRQRPPRLPRPRPRPAGGPRP,shrunken log2 fold change,0.204
RRIRWRPPRLPRPRPRPGIAPRP,shrunken log2 fold change,0.411
RRIRTRPPRLPRPRPRPCSIPRP,shrunken log2 fold change,-0.472
RRIRYRPPRLPRPRPRPRQRPRP,shrunken log2 fold change,0.194
RRIRYRPPRLPRPRPRPMWLPRP,shrunken log2 fold change,-0.224
RRIRGRPPRLPRPRPRPICRPRP,shrunken log2 fold change,-0.0289
RRIRLRPPRLPRPRPRPKMHPRP,shrunken log2 fold change,0.0307
RRIRKRPPRLPRPRPRPGQLPRP,shrunken log2 fold change,0.236
RRIRERPPRLPRPRPRPRINPRP,shrunken log2 fold change,-0.427
RRIRGRPPRLPRPRPRPAQCPRP,shrunken log2 fold change,0.471
RRIRMRPPRLPRPRPRPWECPRP,shrunken log2 fold change,1.1
RRIRCRPPRLPRPRPRPGQAPRP,shrunken log2 fold change,-0.0147
RRIRWRPPRLPRPRPRPWLYPRP,shrunken log2 fold change,-0.128
RRIRMRPPRLPRPRPRPRTAPRP,shrunken log2 fold change,1.29
RRIRCRPPRLPRPRPRPTPAPRP,shrunken log2 fold change,0.933
RRIRPRPPRLPRPRPRPSMAPRP,shrunken log2 fold change,-0.0637
RRIRNRPPRLPRPRPRPLFDPRP,shrunken log2 fold change,-0.298
RRIRCRPPRLPRPRPRPWPQPRP,shrunken log2 fold change,-0.0463
RRIRFRPPRLPRPRPRPDFSPRP,shrunken log2 fold change,-0.259
RRIRSRPPRLPRPRPRPKCSPRP,shrunken log2 fold change,-0.122
RRIRRRPPRLPRPRPRPSWAPRP,shrunken log2 fold change,0.157
RRIRSRPPRLPRPRPRPNDHPRP,shrunken log2 fold change,-0.322
RRIRIRPPRLPRPRPRPVDKPRP,shrunken log2 fold change,0.0266
RRIRIRPPRLPRPRPRPRSCPRP,shrunken log2 fold change,0.16
RRIRQRPPRLPRPRPRPGNWPRP,shrunken log2 fold change,-0.0235
RRIRPRPPRLPRPRPRPYLKPRP,shrunken log2 fold change,-0.259
RRIRERPPRLPRPRPRPNHPPRP,shrunken log2 fold change,-0.278
RRIRWRPPRLPRPRPRPSPHPRP,shrunken log2 fold change,-0.0688
RRIRNRPPRLPRPRPRPNEPPRP,shrunken log2 fold change,-0.000856
RRIRDRPPRLPRPRPRPVPQPRP,shrunken log2 fold change,0.0622
RRIRYRPPRLPRPRPRPKDWPRP,shrunken log2 fold change,-0.176
RRIRCRPPRLPRPRPRPDHQPRP,shrunken log2 fold change,-0.172
RRIRSRPPRLPRPRPRPWLAPRP,shrunken log2 fold change,0.166
RRIRCRPPRLPRPRPRPFWSPRP,shrunken log2 fold change,-0.331
RRIRYRPPRLPRPRPRPPWHPRP,shrunken log2 fold change,-0.507
RRIRGRPPRLPRPRPRPEPSPRP,shrunken log2 fold change,1.47
RRIRWRPPRLPRPRPRPSEQPRP,shrunken log2 fold change,-0.247
RRIRPRPPRLPRPRPRPLTGPRP,shrunken log2 fold change,0.019
RRIRNRPPRLPRPRPRPFAQPRP,shrunken log2 fold change,-0.321
RRIRNRPPRLPRPRPRPIADPRP,shrunken log2 fold change,0.0461
RRIRCRPPRLPRPRPRPKSVPRP,shrunken log2 fold change,0.0362
RRIRNRPPRLPRPRPRPNNGPRP,shrunken log2 fold change,-0.0309
RRIRERPPRLPRPRPRPGRHPRP,shrunken log2 fold change,-0.0636
